Usually Ki stands for the equilibrium dissociation constant of an inhibitor or competing ligand from its target.

This assay deals with mTORΔN-mLST8 mTORΔN (Homo sapiens, UniProt P42345). Briefly: kinase inhibition assay.

B1: PRAS40 114-256 (protein)
chain: not shown
With B1, the Ki was approximately 52 µM.

The values above are taken from publication PMC5750076 (2017).
